“And” between values parts separate entries of the source, which are not always exact repeats. Equal entries are not always repeated.
Target: the molecule itself
Assay: cryo-EM structure

B1: Nipah virus (NiV) nucleocapsid protein (natural protein)
chain: MSDIFEEAASFRSYQSKLGRDGRASAATATLTTKIRIFVPATNSPELRWELTLFALDVIRSPSAAESMKVGAAFTLISMYSERPGALIRSLLNDPDIEAVIIDVGSMVNGIPVMERRGDKAQEEMEGLMRILKTARDSSKGKTPFVDSRAYGLRITDMSTLVSAVITIEAQIWILIAKAVTAPDTAEESETRRWAKYVQQKRVNPFFALTQQWLTEMRNLLSQSLSVRKFMVEILIEVKKGGSAKGRAVEIISDIGNYVEETGMAGFFATIRFGLETRYPALALNEFQSDLNTIKSLMLLYREIGPRAPYMVLLEESIQTKFAPGGYPLLWSFAMGVATTIDRSMGALNINRGYLEPMYFRLGQKSARHHAGGIDQNMANRLGLSSDQVAELAAAVQETSAGRQESNVQAREAKFAAGGVLIGGSDQDIDEGEEPIEQSGRQSVTFKREMSISSLANSVPSSSVSTSGGTRLTNSLLNLRSRLAAKAAKEAASSNATDDPAISNRTQGESEKKNNQDLKPAQNDLDFVRADV
notes: also called N protein; nucleoprotein (N)
Q: How did the “stoichiometry N” value turn out when B1 was run?
A: 13 subunits and 14 subunits
